Target: His-tagged pleckstrin homology (PH) domain of AKT (AKT-PHD) (Marsupenaeus japonicus)
Test: ITC; CaM (70 uM) titrated into 10 uM AKT-PHD in the cell; 25°C; 0.1 M Tris-HCl pH 8.0; 19 injections; Auto-iTC200

Kd: 726 nM
dH: -80.1 kcal/mol
Substance: recombinant GST-tagged calmodulin (CaM) (natural protein)

— PMC9481175
